This passage reports stoichiometry N (HrpG:HrpV:HrpJ) results from article PMC6069116.

The experiment deals with HrpG/HrpV complex from Erwinia amylovora, separately produced (Erwinia amylovora). The experiment is described as follows: SEC-MALS. For orientation: SEC sorts molecules by how far they enter the pores of the column.

Substance “HrpJ from Erwinia amylovora, separately produced and purified (natural protein)” showed a stoichiometry N (HrpG:HrpV:HrpJ) of 1.
